Test results from patent US20220267420A1 (Memorial Sloan Kettering, published 2022).

Columns and labels:
[1] = molecular target: T1, HLA-A*02:01 on T2 cells without added peptide (human); assay: flow cytometry; T2 cells without peptide, stained with Foxp3-#32 bispecific mAb
T1 construct: Also serves as the HLA partner in the T2 stabilization assay of the TLI analog peptides; also called T2 cells alone; HLA-A*02 molecule
Description: (§1) TLI peptide was substituted with alanine at position 1, 2, 3, 4, 5, 7, 8 and 9, or with glycine at position 10. Position 6 was already alanine and it was left intact.

[2] = molecular target: T2, A1: … on HLA-A2 of T2 cells (human, UniProt A*02:01); assay: flow cytometry; T2 cells pulsed with the peptide at 50 ug/ml, stained with Foxp3-#32 bispecific mAb
T2 construct: on T2 cells; T1A; also called A1 analog of the Foxp3-TLI peptide/HLA-A*02:01
Description: as §1

[3] = molecular target: T3, G10: … on HLA-A2 of T2 cells (human, UniProt A*02:01); assay: as above
T3 construct: on T2 cells; A10G; also called G10 analog of the Foxp3-TLI peptide/HLA-A*02:01
Description: as §1

[4] = molecular target: T4, A7: … on HLA-A2 of T2 cells (human, UniProt A*02:01); assay: as above
T4 construct: on T2 cells; I7A; also called A7 analog of the Foxp3-TLI peptide/HLA-A*02:01
Description: as §1

[5] = molecular target: T5, A4: … on HLA-A2 of T2 cells (human, UniProt A*02:01); assay: as above
T5 construct: on T2 cells; R4A; also called A4 analog of the Foxp3-TLI peptide/HLA-A*02:01
Description: as §1

[6] = molecular target: T6, A2: … on HLA-A2 of T2 cells (human, UniProt A*02:01); assay: as above
T6 construct: on T2 cells; L2A; also called A2 analog of the Foxp3-TLI peptide/HLA-A*02:01
Description: as §1

[7] = molecular target: T7, A8: … on HLA-A2 of T2 cells (human, UniProt A*02:01); assay: as above
T7 construct: on T2 cells; L8A; also called A8 analog of the Foxp3-TLI peptide/HLA-A*02:01
Description: as §1

[8] = molecular target: T8, A5: … on HLA-A2 of T2 cells (human, UniProt A*02:01); assay: as above
T8 construct: on T2 cells; W5A; also called A5 analog of the Foxp3-TLI peptide/HLA-A*02:01
Description: as §1

[9] = molecular target: T9, A3: … on HLA-A2 of T2 cells (human, UniProt A*02:01); assay: as above
T9 construct: on T2 cells; I3A; also called A3 analog of the Foxp3-TLI peptide/HLA-A*02:01
Description: as §1

[10] = molecular target: T10, A9: … on HLA-A2 of T2 cells (human, UniProt A*02:01); assay: as above
T10 construct: on T2 cells; E9A; also called A9 analog of the Foxp3-TLI peptide/HLA-A*02:01
Description: as §1

[11] = molecular target: T11, CD3 on the Jurkat T cell line (human, UniProt P07766 23-207); assay: flow cytometry on Jurkat cells (HLA-A2 negative)
T11 construct: whole, on cells; The result sentence says only 'CD3'; the epsilon chain comes from the description of the construct; also called human CD3 epsilon
T11 sequence (P07766 23-207): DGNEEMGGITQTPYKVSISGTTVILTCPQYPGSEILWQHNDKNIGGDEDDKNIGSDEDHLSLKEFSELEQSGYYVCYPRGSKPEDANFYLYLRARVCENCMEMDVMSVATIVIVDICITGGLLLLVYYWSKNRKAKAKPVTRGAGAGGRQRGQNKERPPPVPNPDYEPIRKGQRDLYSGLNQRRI
Protocol: Binding of the indicated bispecific mAb constructs to Foxp3+/HLA-A2+T lymphoma cell line MAC-2A and control cell line Jurkat. Since the bispecific mAb constructs were myc-tagged, the binding was tested by staining the cells with the bispecific mAbs, followed by a secondary mAb, mouse anti-myc conjugated to FITC. […] Binding strength is shown by median fluorescent intensity.

| binding result [1] | Median:PE-A [2] | Median:PE-A [3] | Median:PE-A [4] | Median:PE-A [5] | Median:PE-A [6] | Median:PE-A [7] | Median:PE-A [8] | Median:PE-A [9] | Median:PE-A [10] | binding result [11] | Binder |
| --- | --- | --- | --- | --- | --- | --- | --- | --- | --- | --- | --- |
| no binding | 5620 | 214 | 3470 | 4450 | 603 | 122 | 861 | 5510 | 117 |  | Foxp3-#32 bispecific mAb (bispecific antibody, Bispecific T cell engager format, made in CHO cells and purified through its His tag; also called FoxP3-#32 BsAb; Foxp3-bispecific mAb) QSVLTQPPSVSVAPGKTARITCGGNNIGSKSVHWYQQKPGQAPVLVIYYDSDRPSGIPERFSGSNSGNTATLTISRVEAGDEADYYCQVWDSSSDHYVFGTGTKVTVLGSRGGGGSGGGGSGGGGSLEMAEVQLVESGGGVVQPGRSLRLSCAASGFTFNNHAMHWVRQAPGKGLEWVAVISFDGDDKFYADSVKGRFTISRDNSRNTLFLQMNNLRPEDTAVYYCSRDPYHFASGSYSYFDYWGQGTLVTVSSTSGGGGSDVQLVQSGAEVKKPGASVKVSCKASGYTFTRYTMHWVRQAPGQGLEWIGYINPSRGYTNYADSVKGRFTITTDKSTSTAYMELSSLRSEDTATYYCARYYDDHYCLDYWGQGTTVTVSSGEGTSTGSGGSGGSGGADDIVLTQSPATLSLSPGERATLSCRASQSVSYMNWYQQKPGKAPKRWIYDTSKVASGVPARFSGSGSGTDYSLTINSLEAEDAATYYCQQWSSNPLTFGGGTKVEIKHHHHHH |
|  |  |  |  |  |  |  |  |  |  | no binding (tested: 1 ug/ml) | Foxp3-#32 mAb, mouse IgG1 form (antibody, V domains shown, APC-conjugated in some stainings; the letters do not carry the dye., Mouse IgG1 form of the TCR-mimic antibody, used for flow cytometry and APC-conjugated in some stainings; Where the text says only 'Foxp3-#32 mAb' in the Treg and cell line stainings, the methods and legends name the mouse IgG1 form; also called mAb Foxp3-#32; mAb-Foxp3-#32) VH: EVQLVESGGGVVQPGRSLRLSCAASGFTFNNHAMHWVRQAPGKGLEWVAVISFDGDDKFYADSVKGRFTISRDNSRNTLFLQMNNLRPEDTAVYYCSRDPYHFASGSYSYFDYWGQGTLVTVSS VL: QSVLTQPPSVSVAPGKTARITCGGNNIGSKSVHWYQQKPGQAPVLVIYYDSDRPSGIPERFSGSNSGNTATLTISRVEAGDEADYYCQVWDSSSDHYVFGTGTKVTVL |
